Article PMC2764403 (Biochemistry, 2009)
Values belong to the molecule of their own block, whether it stands above or below them.

Experiments:
Assay in all cases: AUC
[1] = molecular target: human βA3-crystallin (human) (UniProt P05813)
[2] = molecular target: βB1ΔN47, tryptic product of murine βB1-crystallin (residues 1-47 removed) (murine)
[3] = molecular target: βB1ΔN56, murine βB1-crystallin with N-terminal residues 1-56 deleted (murine)
AUC = molecular target: the molecule itself
murine βB1-crystallin = molecular target: T1, murine βB1-crystallin (murine, UniProt Q9WVJ5 1-250)
T1 sequence (looked up): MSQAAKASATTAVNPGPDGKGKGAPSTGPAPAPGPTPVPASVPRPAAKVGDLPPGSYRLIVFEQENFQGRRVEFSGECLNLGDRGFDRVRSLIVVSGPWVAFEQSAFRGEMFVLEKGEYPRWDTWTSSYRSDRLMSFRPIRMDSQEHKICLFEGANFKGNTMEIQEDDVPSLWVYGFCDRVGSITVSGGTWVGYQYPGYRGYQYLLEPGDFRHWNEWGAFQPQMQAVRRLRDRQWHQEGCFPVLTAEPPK

Kd [1]: 200 nM | Kd [2]: 1400 nM | stoichiometry N [2]: 2
Molecule: βB1ΔN47, tryptic product of murine βB1-crystallin (residues 1-47 removed) (domain or fragment)

stoichiometry N [3]: 4
Molecule: βB1ΔN56, murine βB1-crystallin with N-terminal residues 1-56 deleted (domain or fragment)

Kd (murine βB1-crystallin): 5000 nM
B1: βA3ΔN30, human βA3-crystallin with N-terminal residues 1-30 deleted and residue 31 replaced by glycine (domain or fragment, UniProt P05813-1 31-215, looked up)
chain: GKITIYDQENFQGKRMEFTSSCPNVSERSFDNVRSLKVESGAWIGYEHTSFCGQQFILERGEYPRWDAWSGSNAYHIERLMSFRPICSANHKESKMTIFEKENFIGRQWEISDDYPSLQAMGWFNNEVGSMKIQSGAWVCYQYPGYRGYQYILECDHHGGDYKHWREWGSHAQTSQIQSIRRIQQ
Kd (AUC): 100 nM | stoichiometry N (AUC): 2
